Test results: patent US20220325261

Tested on: beta-catenin

## GST-PTPRS D1
  tyrosine phosphorylation of immunopurified beta-catenin (Western blot): decreased tyrosine phosphorylation of immunopurified beta-catenin in the presence of GST-PTPRS D1 compared to GST alone
